Assay results from publication PMC10665462 (2023).

Target: BTN3A1 BFI (JM+B30.2) (Homo sapiens, UniProt O00481)
Experiment: ITC

Sequence of BTN3A1 BFI (JM+B30.2) (O00481 272-513): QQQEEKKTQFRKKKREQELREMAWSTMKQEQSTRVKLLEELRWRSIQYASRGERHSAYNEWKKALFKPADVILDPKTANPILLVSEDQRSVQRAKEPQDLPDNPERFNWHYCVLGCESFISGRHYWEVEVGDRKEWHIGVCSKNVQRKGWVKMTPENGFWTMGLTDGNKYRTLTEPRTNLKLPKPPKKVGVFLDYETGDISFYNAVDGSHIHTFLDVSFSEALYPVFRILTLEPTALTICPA

| Binder | Kd |
| --- | --- |
| BTN2A1 ID271 (JM+B30.2) (protein, HMBPP) KLQKEKKILSGEKEFERETREIALKELEKERVQKEEELQVKEKLQEELRWRRTFLHAVDVVLDPDTAHPDLFLSEDRRSVRRCPFRHLGESVPDNPERFDSQPCVLGRESFASGKHYWEVEVENVIEWTVGVCRDSVERKGEVLLIPQNGFWTLEMHKGQYRAVSSPDRILPLKESLCRVGVFLDYEAGDVSFYNMRDRSHIYTCPRSAFSVPVRPFFRLGCEDSPIFICPALTGANGVTVPEEGLTLHRVGTHQSL | 0.78 µM |
| BTN2A1 ID271 (JM+B30.2) (protein, 4-M-HMBPP) KLQKEKKILSGEKEFERETREIALKELEKERVQKEEELQVKEKLQEELRWRRTFLHAVDVVLDPDTAHPDLFLSEDRRSVRRCPFRHLGESVPDNPERFDSQPCVLGRESFASGKHYWEVEVENVIEWTVGVCRDSVERKGEVLLIPQNGFWTLEMHKGQYRAVSSPDRILPLKESLCRVGVFLDYEAGDVSFYNMRDRSHIYTCPRSAFSVPVRPFFRLGCEDSPIFICPALTGANGVTVPEEGLTLHRVGTHQSL | 190 µM |
